{"source": "the DeepSol protein solubility set", "data": [{"assay": "soluble on expression in E. coli; label from the status in PepcDB or PDB records", "values": [{"sequence": "ETTSSIGEKVWDDKDNQDGKRPEKVSVNLLANGEKVKTLDVTSETNWKYEFKDLPKYDEGKKIEYTVTEDHVKDYTTDINGTTITNKYTPGETSATVTKNWDDNNNQDGKRPTEIKVELYQDGKATGKTAILNESNNWTHTWTGLDEKAKGQQVKYTVEELTKVKGYTTHVDNNDMGNLITTNKYTPETTSSIGEKVWDDKDNQDGKRPEKVSVNLLANGEKVKTLDVTSETNWKYEFKDLPKYDEGKKIEYTVTEDHVKDYTTDINGTTITNKYTPGETSATVTKNWDDNNNQDGKRPTEIKVELYQDGKATGKTAILNESNNWTHTWTGLDEKAKGQQVKYTVEELTKVKGYTTHVDNNDMGNLITTNKYT", "soluble on expression in E. coli": "soluble"}, {"sequence": "MSSFIEMIENITPDVYESLKLAVEIGKWSDGRKLTQEQRELSLQALIAWEAQNLPEDQRTGYMGPQECASKSAPVPNILFKSDAIH", "soluble on expression in E. coli": "not soluble"}, {"sequence": "MINRRYELFKDVSDADWNDWRWQVRNRIETVEELKKYIPLTKEEEEGVAQCVKSLRMAITPYYLSLIDPNDPNDPVRKQAIPTALELNKAAADLEDPLHEDTDSPVPGLTHRYPDRVLLLITDMCSMYCRHCTRRRFAGQSDDSMPMERIDKAIDYIRNTPQVRDVLLSGGDALLVSDETLEYIIAKLREIPHVEIVRIGSRTPVVLPQRITPELVNMLKKYHPVWLNTHFNHPNEITEESTRACQLLADAGVPLGNQSVLLRGVNDCVHVMKELVNKLVKIRVRPYYIYQCDLSLGLEHFRTPVSKGIEIIEGLRGHTSGYCVPTFVVDAPGGGGKTPVMPNYVISQSHDKVILRNFEGVITTYSEPINYTPGCNCDVCTGKKKVHKVGVAGLLNGEGMALEPVGLERNKRHVQE", "soluble on expression in E. coli": "soluble"}, {"sequence": "MLCIDSSRDLTYGVVMTFKVMEFQKGRLQNLYWKRDVCASCKGNQNFVCLKKQVCAIRTPSCKGRGGSVGCSLGIQLAFSGTDKHLAVLNSWYEVDNLKQYSLYGLYSNLKSSLTNQLNNFF", "soluble on expression in E. coli": "soluble"}, {"sequence": "MKELRVKNQYEKHKEVEAAQGVKILGKDLEKTLAGLPLLVAYKDDEIPVLKDELIHELKQTLNAIKLEEKGVYVQASTLGSLEALLEFLKTSEVPYAGINIGPVHKKDVMKASVMLEHDPQYAVILAFDVRIERDAQEMADSLGVRIFSAEIIYHLFDAFTKYRQDYKKQKQEEFKHIAVFPCKMKILPQYIFNSRDPIVIGVTVEAGQVKQGTPMCVPSKNFVDIGIVTSIEINHKQVDVAKKGQEVCVKIEPIPGESPKMFGRHFEATDILVSKISRQSIDALKDWFRDEMQKSDWQLIVELKKVFEII", "soluble on expression in E. coli": "soluble"}, {"sequence": "MSLKKKTTLSEEDQALFRQLMAGTRKIKQDTIVHRPQRKKISEVPVKRLIQEQADASHYFSDEFQPLLNTEGPVKYVRPDVSHFEAKKLRRGDYSPELFLDLHGLTQLQAKQELGALIAACRREHVFCACVMHGHGKHILKQQTPLWLAQHPHVMAFHQAPKEYGGDAALLVLIEVEEWLPPEGHHHHHH", "soluble on expression in E. coli": "soluble"}, {"sequence": "MNIPKVQFNPKVHKNIGIEIIELSDIYKRSDDDLENFIAKPHRIKFHNILYITQGRGTHFIDFNTYTTQAGSVVFINKNQVHAFDLINQPQGKLIIFTDEYLDTILTTIKTPLSAHNYLLTSYSPTFSLSKKIRNTCDVLLTEIEKEYQVKDPNLNFLNLIFSAVLTKLSSERTRSFEQYLSESRTEKFMTFIELLEVNYTNTRDAKIYADMLHMTYKSLNQICKLATKQTTKQLIDAYIILEAKRKLSIENIRVQQLADELGFDEVTNFVKYFKKNTLLTPSQFKKLNQG", "soluble on expression in E. coli": "not soluble"}, {"sequence": "KKYVVFDMDGTLTTTDFEDVKQYAGEFFNSNYVAKMYPDVDNVVKYYASKGYGILYLTARPYWLSEESQTWLWKNGFPMGLLHTYTGGDVLLGEEAESFKAGYLNQLKSQGIEFDYGFGNEKTDVEAYSNIGIAKSNIFTIGKNRGIDGSVSIVSYTDYLKQLSGN", "soluble on expression in E. coli": "not soluble"}, {"sequence": "MGHHHHHHSHMPKVYGSLIDTETRCRHYFTEEDIIAIKFKCCNKYYPCYKCHNEFEKHAIKRWSEPSFNEKAILCGVCKHELTINEYMMVERCPNCQSRFNNRCKYHYHIYFEI", "soluble on expression in E. coli": "soluble"}, {"sequence": "SMLSRAKPAVGGESPHTDKRKKKGRKIPKLEDLLSQRDFTGAITLLEFKRHVGEQEDDTNLWIGYCAFHLGDYKRALEEYENATKEENCNPEVWVNLACTYFFLGMYKQAEAAGFKAPKSRLQNRLLFHLAHKFNDEKKLMNFHQNLQDIKEDQLSLASNSEIHLPLPPECWD", "soluble on expression in E. coli": "soluble"}, {"sequence": "MAFVPPQAGYDRAITVFSPDGRLFQVNYAREAVKRGATAVGVKCNEGVVLAVEKRITSRLIEPESYEKIFQIDDHIAAASSGIIADARVLVNRARLEAQIHRLTYGEPAPLAVIVKKICDLKQMHTQYGGVRPFGAALLMAGVNEKPELYETDPSGAYFAWKAVAIGSGRNTAMAIFEEKYKDDMSLEEAIKLAIFALAKTMEKPSAENIEVAIITVKDKKFRKLSREEIEKYLNEVMKEVEEEEVKEKEEDYSELDSHY", "soluble on expression in E. coli": "soluble"}, {"sequence": "MSDSRYKVDVSVVTRFLAEQSQPEQNRFAFAYTITVHNNGELPAKLLSRHWIITDGDGHVEEVRGEGVVGQQPLIKVGQSHTYSSGTVMTTQVGNMQGSYQMLAEDGKRFDAVIEPFRLAVPGSLHLEHHHHHH", "soluble on expression in E. coli": "soluble"}, {"sequence": "MSFPAASIDLGTNTARLLIGSVEAGRIEHLLVKRHITRLGGGFTKERGISPEAWSRSLAALVDFADEMNRAGVVRVRAVATSAVRDAVNGGDFCADVAERTGISLEVIDGEEEALLTLAGVLSGLDRKEGRFFVFDVGGGSTEYTLASGNAPLYTESLPLGVVRLTEGKSDLPAMEEKVGRELAGLRERLAGRALDGQLAGATLVGTAGTATTLAAISLGMTDYDYRRVNNHLLSRDEIARILALLLPLSPAERLAVPGLEKGREDLIVAGTLITLATMDLFGFESMTVSDFGLLEGALIGLARTDELEHHHHHH", "soluble on expression in E. coli": "not soluble"}, {"sequence": "MTIHNFDLLVVGGGINGTGIARDAAGRHLSVCLCEQHDLASHTSSASTKLIHGGLRYLEYYEFALVSKALAEREILLRQAPHIVRPLHFILPHQPHLRPTWIIRAGLLLYDHLGFSRRTLPRSRRLNLAQHPAGQPLKQELHTGFMYCDAQVQDARLVVLNAMDAAQRGARILTRTRCVRTRRDGAHWLTELEDAQGRQQQIRTRAIVNAAGPWAVTFLDHIAQQPHQHTLRLVKGSHIVVPRLFEHEHAYIFQQPDRRIVFAIPYEQHFTLIGTTDVDYVADPANPHIDAAETMYLCNAVNSYFRQQITPEDVLWSYSGVRPLLNDGHNNASKVTRDYQLEILGNSAPLLNVFGGKLTTYRKLSEEAVNQLCVALDHPYRAWTANGPPLPGGEHHDIAALQNTLRQHRPWLPTATAQRLIHNYGTYAETLLGNATNLHTLGIHFGADLYQAEVDYLRTHEWACSAEDILWRRSKLGLHLDAHGTQRLEDYLRSCSRIPDHADTTTQLEHHHHHH", "soluble on expression in E. coli": "not soluble"}, {"sequence": "MNDRARELASRLIRNFNEASLEHEVREPLYESAAARLGTGTVAHKLGASVDVVAPGKRSCPYHFHHAQEEMFVIIEGEGSLRVAGEMLPIKTGDVLFIPAGPEYPHQIINTSQAPLKYLSISTRETPEVCEYPDSGKYQAMVSANGARVFTANQRTTENVDYWDGEPLEHHHHHH", "soluble on expression in E. coli": "soluble"}, {"sequence": "MGSDKIHHHHHHMMSDASLPALTLPPALRRVLPAARWERVTEGESGAGVWRSTRFVVKVQSRTLYPASTLLQERERLRWFAGRLPVPQVVAYEDDGEQEYLAMTRLPGIAMSHPDAALHPERMVNLLARALRELHALPVRDCPFNMSLGVRLKLARERVAAGVVDESDFDEERQGQSAVQVFNQLARTRPAEEDLVVTHGDACLPNVIVQGEYVEGLIDLGRAGIADRHMDLALAWRSTRRNLGATYAGMLLDLYGRELVDEGKLAYYQLLDELF", "soluble on expression in E. coli": "not soluble"}, {"sequence": "MFALVLFVCYLDGGCEDIVVDVYNTEQQCLYSMSDQRIRQGGCFPIEDFIDGFWRPAQEYGDFLEHHHHHH", "soluble on expression in E. coli": "soluble"}, {"sequence": "MPAVESNMFPLGKQAPPFALTNVIDGNVVRLEDVKSDVATVIMFICNHCPFVKHVQHELVRLANDYMPKGVSFVAINSNDAEQYPEDSPENMKKVAKELGYPFPYLYDETQEVAKAYDAACTPDFYIFDRELKCVYRGQLDDSRPNNGIPVTGESIRAALDALLEGRPVPEKQKPSIGCSIKWKPSA", "soluble on expression in E. coli": "not soluble"}, {"sequence": "MEYRIERDTMGEVRVPADKYWGAQTQRSLENFRIGTDRFRMPLEIIRAYGMLKKAAARANLELGELPEEIAKAIIQAAEEVVQGKWDDHFPLVVFQTGSGTQTNMNVNEVIANRASEILGKPLGSKYVHPNDHVNRGQSSNDTFPTAMYVAVALALHQRLYPAVEGLIRTFTAKAQAFDQIVKVGRTHLMDAVPITLGQEIGSWAAQLKTTLAAVKEMEKGLYNLAIGGTAVGTGLNAHPRFGELVAKYLAEETGLPFRVAENRFAALAAHDELVNVMGAIRTLAGALMKIGNDVRWLASGPYAGIGEITIPANEPGSSIMPGKVNPTQVEALTMVVVRVYGNDHTVAFAGSQGNFQLNVYKPVMAYSTLESINLLADAVASFDAHLAQGIEPNLERIEEHLQKNPMLATALNKAIGYDKAAEIVKKALKEKKTLKQAALELGYLTEEEFDRIVVPMRLAKPHEGA", "soluble on expression in E. coli": "soluble"}, {"sequence": "MPESYWEKVSGKNIPSSLDLYPIIHNYLQEDDEILDIGCGSGKISLELASLGYSVTGIDINSEAIRLAETAARSPGLNQKTGGKAEFKVENASSLSFHDSSFDFAVMQAFLTSVPDPKERSRIIKEVFRVLKPGAYLYLVEFGQNWHLKLYRKRYLHDFPITKEEGSFLARDPETGETEFIAHHFTEKELVFLLTDCRFEIDYFRVKELETRTGNKILGFVIIAQKLLEHHHHHH", "soluble on expression in E. coli": "soluble"}, {"sequence": "MDHLPIFCQLRDRDCLIVGGGDVAERKARLLLEAGARLTVNALTFIPQFTVWANEGMLTLVEGPFDETLLDSCWLAIAATDDDTVNQRVSDAAESRRIFCNVVDAPKAASFIMPSIIDRSPLMVAVSSGGTSPVLARLLREKLESLLPQHLGQVARYAGQLRARVKKQFATMGERRRFWEKFFVNDRLAQSLANADEKAVNATTERLFSEPLDHRGEVVLVGAGPGDAGLLTLKGLQQIQQADIVVYDRLVSDDIMNLVRRDADRVFVGKRAGYHCVPQEEINQILLREAQKGKRVVRLKGGDPFIFGRGGEELETLCHAGIPFSVVPGITAASGCSAYSGIPLTHRDYAQSVRLVTGHLKTGGELDWENLAAEKQTLVFYMGLNQAATIQEKLIAFGMQADMPVALVENGTSVKQRVVHGVLTQLGELAQQVESPALIIVGRVVALRDKLNWFSNH", "soluble on expression in E. coli": "soluble"}, {"sequence": "MASESSIDEKKKKAQVTQSNINKNTPQQLTDKDLFGNETTLAVSEEDIQAALDGDEFRVPLNSPVILVQSGNRAPETIMQEEMRKYYTVSTFSGIPDRQKPLTCNKNKDKNENEDVASAENMNWMQALRFVAAKGHQKAIIVYQDMLQTGKYDSALKSTVWSDYKNDKLTDAISLRYLVRFTLVDVATGEWATWSPVNYEYKVLPPLPDKNEASTTDMTEQQIMQLKQKTYKAMVKDLVNRYQLEHHHHHH", "soluble on expression in E. coli": "not soluble"}, {"sequence": "VTWKGSGQETVGAEPTLWAISDLHTGHLGNKPVAESLYPSSPDDWLIVAGDVAERTDEIRWSLDLLRRRFAKVIWVPGNHELWTTNRDPMQIFGRARYDYLVNMCDEMGVVTPEHPFPVWTERGGPATIVPMFLLYDYSFLPEGANSKAEGVAIAKERNVVATDEFLLSPEPYPTRDAWCHERVAATRARLEQLDWMQPTVLVNHFPLLRQPCDALFYPEFSLWCGTTKTADWHTRYNAVCSVYGHLHIPRTTWYDGVRFEEVSVGYPREWRRRKPYSWLRQVLPDPQYAPGYLNDFGGHFVITPEMRTQAAQFRERLRQRQSR", "soluble on expression in E. coli": "not soluble"}, {"sequence": "MEKTRANSHLRSQPIDWTIEEVIQYIESNDNSLAVHGDLFRKHEIDGKALLRLNSEMMMKYMGLKLGPALKICNLVNKVNGRDHHHHHH", "soluble on expression in E. coli": "soluble"}, {"sequence": "MAHHHHHHMSIYCRLASPPVFLRALHTVSVSRDGWATVVFTDSHVVLHVEGTDENMTATCTLPKNLFAEYAVVETRFALHIPTLIDALLMLG", "soluble on expression in E. coli": "not soluble"}]}]}
